Biological target: Bax (human (endogenous in U-2 OS and Sa OS)) (UniProt Q07812)
Experiment: co-IP

Bax (human (endogenous in U-2 OS and Sa OS)), sequence (Q07812 whole entry): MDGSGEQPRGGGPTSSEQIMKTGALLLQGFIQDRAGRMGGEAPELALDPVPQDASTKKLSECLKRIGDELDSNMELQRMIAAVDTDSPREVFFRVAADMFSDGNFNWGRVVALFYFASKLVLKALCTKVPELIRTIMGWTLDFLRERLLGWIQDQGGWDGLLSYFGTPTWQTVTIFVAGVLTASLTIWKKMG
Ku70, sequence (P12956 whole entry): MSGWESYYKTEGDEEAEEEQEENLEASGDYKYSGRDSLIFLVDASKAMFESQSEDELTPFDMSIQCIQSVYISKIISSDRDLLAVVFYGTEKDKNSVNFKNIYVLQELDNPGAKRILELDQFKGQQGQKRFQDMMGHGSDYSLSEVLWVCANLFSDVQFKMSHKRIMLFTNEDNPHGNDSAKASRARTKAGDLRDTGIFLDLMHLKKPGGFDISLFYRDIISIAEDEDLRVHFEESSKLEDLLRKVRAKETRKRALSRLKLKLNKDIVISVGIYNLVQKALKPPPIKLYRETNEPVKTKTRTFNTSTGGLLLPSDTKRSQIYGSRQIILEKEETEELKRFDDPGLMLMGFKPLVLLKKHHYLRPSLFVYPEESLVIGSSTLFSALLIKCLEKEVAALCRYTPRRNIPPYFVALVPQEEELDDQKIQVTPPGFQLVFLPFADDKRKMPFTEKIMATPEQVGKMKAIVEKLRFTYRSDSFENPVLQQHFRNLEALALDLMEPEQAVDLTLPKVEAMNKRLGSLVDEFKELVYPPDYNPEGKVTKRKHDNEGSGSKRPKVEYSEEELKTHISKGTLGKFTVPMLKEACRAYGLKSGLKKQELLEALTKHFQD

percent of Ku70 remaining bound to Bax after sCLU depletion: < 25%
Substance: Ku70 (from UniProt P12956 1-609) (natural protein)
